Measured values: the supplement of paper PMC10201428
± gives the standard deviation of the averaged measurements.

What was measured:
[1] = test system: VchCAST RNA-guided transposition machinery (E. coli BL21(DE3) host, lacZ target); test: relative integration efficiency (T-RL orientation) vs wild-type transposon end (log2 (normalized fold change)); transposon end mutated: right end (5 bp flank + 75 bp right end); higher = more efficient transposition
Summary of the method: (§1)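 In E. coli BL21(DE3), a T7-driven effector plasmid was paired with a pUC57 mini-transposon donor containing 1549 left-end or 1849 right-end barcoded transposon variants. Cells grew on plates with 0.1 mM IPTG at 37°C for 18 h. Relative integration efficiency was derived from Illumina reads of genomic integration junctions against input plasmids, as a log-transformed output/input barcode fold change normalised to reference barcodes.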

[2] = test system: VchCAST RNA-guided transposition machinery (E. coli BL21(DE3) host, lacZ target); test: relative integration efficiency (T-LR orientation) vs wild-type transposon end (log2 (normalized fold change)); transposon end mutated: right end (5 bp flank + 75 bp right end); higher = more efficient transposition
Summary of the method: as §1

Sequence | relative integration efficiency (log2) [1] | relative integration efficiency (log2) [2]
ACATTTGTTGATACAACCATAAAATGATAATTACACCGTTAAATTGATAATTATCACACCCATAAATTGATATTGCCTCTGATCATAGTCAGACCAACATTGCTACGACCCGTATTCGCACCGACAC | -0.609 ± 0.084 | -1.18 ± 0.3
ACATTTGTTGATACAACCATAAAATGATAATTACACGGATAAATTGATAATTATCACACCCATAAATTGATATTGCCTCTGATCATAGTCAGACCAACATTGCTACGACCCGTATTCGCACCGACAC | -0.265 ± 0.13 | -0.469 ± 0.21
ACATTTGTTGATACAACCATAAAATGATAATTACACGGTAAAATTGATAATTATCACACCCATAAATTGATATTGCCTCTGATCATAGTCAGACCAACATTGCTACGACCCGTATTCGCACCGACAC | -1.85 ± 0.1 | -2.29 ± 0.055
ACATTTGTTGATACAACCATAAAATGATAATTACAGGCATAAATTGATAATTATCACACCCATAAATTGATATTGCCTCTGATCATAGTCAGACCAACATTGCTACGACCCGTATTCGCACCGACAC | -0.00584 ± 0.032 | -0.52 ± 0.19
ACATTTGTTGATACAACCATAAAATGATAATTACAGGGTTAAATTGATAATTATCACACCCATAAATTGATATTGCCTCTGATCATAGTCAGACCAACATTGCTACGACCCGTATTCGCACCGACAC | -1.5 ± 0.12 | -2.54 ± 0.42
ACATTTGTTGATACAACCATAAAATGATAATTACCAAAATAAATTGATAATTATCACACCCATAAATTGATATTGCCTCTGATCATAGTCAGACCAACATTGCTACGACCCGTATTCGCACCGACAC | -0.773 ± 0.1 | -1.47 ± 0.039
ACATTTGTTGATACAACCATAAAATGATAATTACCAAACGCCCGGTCGCCGGCGACACAAACGCCCGGTCGCGGTAAGAGGATCATAGTCAGACCAACATTGCTACGACCCGTATTCGCACCGACAC | -1.94 ± 0.27 | 0.864 ± 0.055
ACATTTGTTGATACAACCATAAAATGATAATTACCACCATAAATTGATAATTATCACACCCATAAATTGATATTGCCTCTGATCATAGTCAGACCAACATTGCTACGACCCGTATTCGCACCGACAC | 0.0622 ± 0.17 | -0.372 ± 0.27
ACATTTGTTGATACAACCATAAAATGATAATTACCACCCATAAATTGATAATTATCACACCCATTTAACTATAACGCTCTGATCATAGTCAGACCAACATTGCTACGACCCGTATTCGCACCGACAC | -0.999 ± 0.21 | 1.69 ± 0.051
ACATTTGTTGATACAACCATAAAATGATAATTACCACCCATACATTGATAATTATCACACCCATTTAACTATAACGCTCTGATCATAGTCAGACCAACATTGCTACGACCCGTATTCGCACCGACAC | -2.43 ± 0.1 | 0.106 ± 0.04
ACATTTGTTGATACAACCATAAAATGATAATTACCACCCCTAAATTGATAATTATCACACCCATTTAACTATAACGCTCTGATCATAGTCAGACCAACATTGCTACGACCCGTATTCGCACCGACAC | -3.13 ± 0.18 | -0.321 ± 0.18
ACATTTGTTGATACAACCATAAAATGATAATTACCACCCCTACATTGATAATTATCACACCCATTTAACTATAACGCTCTGATCATAGTCAGACCAACATTGCTACGACCCGTATTCGCACCGACAC | -3.12 ± 0.17 | -0.0894 ± 0.12
ACATTTGTTGATACAACCATAAAATGATAATTACCCCCATAAATTGATAATAATGACACCGAATTTAACTATAACGCTCTGATCATAGTCAGACCAACATTGCTACGACCCGTATTCGCACCGACAC | -1.7 ± 0.48 | 1.94 ± 0.1
ACATTTGTTGATACAACCATAAAATGATAATTACCCCCATAAATTGATAATGATGACACCGAATTTAACTATAACGCTCTGATCATAGTCAGACCAACATTGCTACGACCCGTATTCGCACCGACAC | -1.63 ± 0.46 | 2.16 ± 0.067
ACATTTGTTGATACAACCATAAAATGATAATTACCCCCATAAATTGATAATTATCACACCCCATTTAACTATAACGCTCTGATCATAGTCAGACCAACATTGCTACGACCCGTATTCGCACCGACAC | -0.917 ± 0.1 | 2.089 ± 0.0067
ACATTTGTTGATACAACCATAAAATGATAATTACCCCCATAAATTGATAATTATCCCACCCAATTTAACTATAACGCTCTGATCATAGTCAGACCAACATTGCTACGACCCGTATTCGCACCGACAC | -1.15 ± 0.18 | 2.06 ± 0.12

Sequence | relative integration efficiency (log2) [1] | relative integration efficiency (log2) [2]
ACATTTGTTGATACAACCATAAAATGATAATTACCCCCATAAATTGATAATTATCCCACCCCATTTAACTATAACGCTCTGATCATAGTCAGACCAACATTGCTACGACCCGTATTCGCACCGACAC | -1.32 ± 0.25 | 1.82 ± 0.11
ACATTTGTTGATACAACCATAAAATGATAATTACCCCCATAAATTGATAATTGTGACACCGAATTTAACTATAACGCTCTGATCATAGTCAGACCAACATTGCTACGACCCGTATTCGCACCGACAC | -1.79 ± 0.38 | 1.94 ± 0.097
ACATTTGTTGATACAACCATAAAATGATAATTACCCCCATCAATTGATAATTATCACACCCAATTTAACTATAACGCTCTGATCATAGTCAGACCAACATTGCTACGACCCGTATTCGCACCGACAC | -2.23 ± 0.41 | 0.506 ± 0.048
ACATTTGTTGATACAACCATAAAATGATAATTACCCCCATCAATTGATAATTATCACACCCCATTTAACTATAACGCTCTGATCATAGTCAGACCAACATTGCTACGACCCGTATTCGCACCGACAC | -2.27 ± 0.37 | 0.526 ± 0.33
ACATTTGTTGATACAACCATAAAATGATAATTACCCCCATCAATTGATAATTATCCCACCCAATTTAACTATAACGCTCTGATCATAGTCAGACCAACATTGCTACGACCCGTATTCGCACCGACAC | -2.38 ± 0.22 | 0.511 ± 0.036
ACATTTGTTGATACAACCATAAAATGATAATTACCCCCATCAATTGATAATTATCCCACCCCATTTAACTATAACGCTCTGATCATAGTCAGACCAACATTGCTACGACCCGTATTCGCACCGACAC | -2.78 ± 0.51 | 0.417 ± 0.32
ACATTTGTTGATACAACCATAAAATGATAATTACTCTGACACCCATAAATTGATAATTATCACACCCATAAATTGATATTGCTCATAGTCAGACCAACATTGCTACGACCCGTATTCGCACCGACAC | -2.73 ± 0.083 | 0.8247 ± 0.0022
ACATTTGTTGATACAACCATAAAATGATAATTACTCTGACACCCATAAATTGATAATTATCAGTGGGTATTTAACTATAACGTCATAGTCAGACCAACATTGCTACGACCCGTATTCGCACCGACAC | -2.06 ± 0.27 | 1.33 ± 0.1
ACATTTGTTGATACAACCATAAAATGATAATTACTCTGATCACCCATAAATTGATAATTATCACACCCATAAATTGATATTGCCATAGTCAGACCAACATTGCTACGACCCGTATTCGCACCGACAC | -4.39 ± 0.071 | 0.359 ± 0.11
ACATTTGTTGATACAACCATAAAATGATAATTACTCTGATCACCCATAAATTGATAATTATCAGTGGGTATTTAACTATAACGCATAGTCAGACCAACATTGCTACGACCCGTATTCGCACCGACAC | -2.48 ± 0.42 | 0.977 ± 0.086
ACATTTGTTGATACAACCATAAAATGATAATTACTCTGATCATAGTCACACCCATAAATTGATAATTATCACACCCATAAATTGATATTGCGACCAACATTGCTACGACCCGTATTCGCACCGACAC | -4.9525 ± 0.00028 | -1.68 ± 0.39
ACATTTGTTGATACAACCATAAAATGATAATTACTCTGATCATAGTCACACCCATAAATTGATAATTATCAGTGGGTATTTAACTATAACGGACCAACATTGCTACGACCCGTATTCGCACCGACAC | -3.34 ± 0.27 | -0.9229 ± 0.0035
ACATTTGTTGATACAACCATAAAATGATAATTACTCTGATCATAGTCAGACACCCATAAATTGATAATTATCACACCCATAAATTGATATTGCCCAACATTGCTACGACCCGTATTCGCACCGACAC | -3.73 ± 0.17 | -0.838 ± 0.091
ACATTTGTTGATACAACCATAAAATGATAATTACTCTGATCATAGTCAGACACCCATAAATTGATAATTATCAGTGGGTATTTAACTATAACGCCAACATTGCTACGACCCGTATTCGCACCGACAC | -1.71 ± 0.23 | 1.66 ± 0.32
ACATTTGTTGATACAACCATAAAATGATAATTACTCTGATCATAGTCAGACCAACATTCACCCATAAATTGATAATTATCACACCCATAAATTGATATTGCGCTACGACCCGTATTCGCACCGACAC | -4.53 ± 0.13 | -2.04 ± 0.32
ACATTTGTTGATACAACCATAAAATGATAATTACTCTGATCATAGTCAGACCAACATTCACCCATAAATTGATAATTATCAGTGGGTATTTAACTATAACGGCTACGACCCGTATTCGCACCGACAC | -3.1 ± 0.26 | -0.137 ± 0.076
